This assay relates to CD8 killer T cells. The assay can be described thus: Replacement of T help by soluble factors in CD4 depleted anti-H-Y killer cultures (JAM Test). The format is cell-based, mouse. To be noted: CD4 depleted primed B6 female spleen cells, male stimulators. An excerpt: Two weeks to 1 year after in vivo priming, spleens were removed from the responders and depleted for CD4 T cells using the Midi MACs system (Miltenyi Biotec, Germany) with MACS magnetic beads conjugated to the anti-mouse CD4 monoclonal antibody, GK1.5. By FACS analysis with the non-competing anti-CD4 antibody RM4-4 (Pharmingen, San Diego, Calif.), the depleted populations routinely contained less than 0.2% CD4 cells.
Two weeks or later after the last in vivo immunization, 4×10^6 spleen cells were restimulated in 2 ml cultures with 2×10^6 irradiated B6 male spleen cells or 1.5×10^5 of the various populations of dendritic cells, with or with out an exogenous source of mouse IL-2, (10% Rat Con A supernatant, from which the ConA has been removed, Collaborative Biomedical Products, Bedford Mass.). Six days later the cultures were tested for their ability to kill male and female targets using the JAM Test. (55).

B1: IL-12: cytokine IL-12 added to the cultures (protein, UniProt P43431 23-215; P43432 23-335, looked up)
Interleukin-12 subunit alpha: RVIPVSGPARCLSQSRNLLKTTDDMVKTAREKLKHYSCTAEDIDHEDITRDQTSTLKTCLPLELHKNESCLATRETSSTTRGSCLPPQKTSLMMTLCLGSIYEDLKMYQTEFQAINAALQNHNHQQIILDKGMLVAIDELMQSLNHNGETLRQKPPVGEADPYRVKMKLCILLHAFSTRVVTINRVMGYLSSA
Interleukin-12 subunit beta: MWELEKDVYVVEVDWTPDAPGETVNLTCDTPEEDDITWTSDQRHGVIGSGKTLTITVKEFLDAGQYTCHKGGETLSHSHLLLHKKENGIWSTEILKNFKNKTFLKCEAPNYSGRFTCSWLVQRNMDLKFNIKSSSSSPDSRAVTCGMASLSAEKVTLDQRDYEKYSVSCQEDVTCPTAEETLPIELALEARQQNKYENYSTSFFIRDIIKPDPPKNLQMKPLKNSQVEVSWEYPDSWSTPHSYFSLKFFVRIQRKKEKMKETEEGCNQKGAFLVEKTSTEVQCKGGNVCVQAQDRYYNSSCSKWACVPCRVRS
B1: the “restoration of killer response in the absence of CD4 helpers by addition to the culture” value is “did not replace the activity of helpers”.

The values above are taken from US6680176B2, “Identification of candidate ligands which modulate antigen presenting cells” (The United States of America, as represented by the …, priority 1999, dated 2004).
